Data on two molecules can be found in US20240254229A1 (Molecular Partners, published 2024).

The target in test [1] is T1, biotinylated extracellular domain of human CD33 (SEQ ID NO: 87), Fc and Avi tagged (human, UniProt P20138 18-259, biotinylated with BirA-GST (Avi tag)).
T1 construct: also called hCD33; human target hCD33
Kind of test: SPR (ProteOn), DARPin immobilized, hCD33 as analyte. The protocol:
For measuring the interaction with human CD33, DARPin® protein #56 and DARPin® protein #57 were diluted in 10 mM NaOAc pH 4.0 and immobilized on an NHS/EDC activated HC200M sensorchip (XanTec bioanalytics GmbH) to a level of around 1000 resonance units (RU) (SMA555) or 1400 Rus (PSC466) using a ProteOn (BioRad). The surface was deactivated using Ethanolamine. The interaction of the tested proteins and human target hCD33 (SEQ ID NO:87) was then measured by injecting 400 μl running buffer (PBS, pH 7.4 containing 0.005% Tween 200) containing three-fold serial dilutions of human target hCD33 covering a concentration range between 66.7 nM and 0.82 nM, followed by a running buffer flow for 500 seconds at a constant flow rate of 100 μl/min (off-rate measurement). After each measurement, a 10 min pause was introduced to allow for complete dissociation of the analyte. Each interaction was recorded in triplicates. The signals (i.e. resonance unit (RU) values) of the interspots and a reference injection (i.e. injection of running buffer only) were subtracted from the RU traces obtained injecting human hCD33 (double-referencing). Dissociation constants (KD) were calculated from the globally fitted on- and off-rates using standard 1:1-Langmuir model.

The target in test [2] is T2, biotinylated extracellular domain of human CD123 (SEQ ID NO: 88), Fc and Avi tagged (human, UniProt P26951 19-303, biotinylated with BirA-GST (Avi tag)).
T2 construct: also called hCD123
T2 sequence: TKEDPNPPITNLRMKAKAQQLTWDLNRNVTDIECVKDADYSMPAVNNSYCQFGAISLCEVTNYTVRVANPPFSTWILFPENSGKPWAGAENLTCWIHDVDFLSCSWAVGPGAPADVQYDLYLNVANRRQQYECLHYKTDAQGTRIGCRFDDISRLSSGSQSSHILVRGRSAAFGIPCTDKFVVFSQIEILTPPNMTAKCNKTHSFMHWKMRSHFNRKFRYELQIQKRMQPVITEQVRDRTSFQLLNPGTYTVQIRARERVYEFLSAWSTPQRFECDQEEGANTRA
Kind of test: SPR (Bruker Sierra SPR-32 Pro), hCD123 on IgG capture chip. On the procedure:
The binding affinities of selected multispecific ankyrin repeat proteins on recombinant targets were analyzed using ProteOn (BioRad) and Bruker Sierra SPR-32 Pro instruments. The measurements were performed according to standard procedures known to the person skilled in the art. For that, DARPin® protein #56 and DARPin® protein #57 of the invention were subcloned and expressed as described above into derivatives of the pQE30 (Qiagen) expression vectors, containing an N-terminal His-tag, two human serum album specific binding domains and CD70, CD123 and CD33 specific binding domains, followed by one CD3 specific binding domain.
Similarly, human target_hCD123 (SEQ ID NO: 88) was diluted in PBST (PBS, pH 7.4 containing 0.005% Tween 20®) and captured on a Bruker IgG Capture sensorchip to a level of around 177 resonance units (RU) using a Bruker Sierra SPR-32pro. The interaction of each tested ankyrin repeat protein and target_hCD123 was then measured by injecting 100 μl running buffer (PBS, pH 7.4 containing 0.005% Tween 200) containing three-fold serial dilutions of ankyrin repeat proteins covering a concentration range between 200 nM and 91 pM, followed by a running buffer flow for at least 1500 seconds at a constant flow rate of 25 μl/min (off-rate measurement). […] Each interaction was recorded in triplicates. […]

Test [3] has as its target T3, extracellular domain of human CD70 (SEQ ID NO: 89), hCD70-Fc-trimer, ACRO Biosystems (human, UniProt P32970 52-193, chemically biotinylated where the biotinylated form was used).
T3 construct: also called human CD70-Fc-trimer; Bio.CD70
T3 sequence: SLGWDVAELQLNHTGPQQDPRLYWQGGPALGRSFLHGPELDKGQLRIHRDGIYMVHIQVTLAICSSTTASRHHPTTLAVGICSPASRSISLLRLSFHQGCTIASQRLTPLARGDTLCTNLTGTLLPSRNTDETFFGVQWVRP
Kind of test: SPR (ProteOn), hCD70-Fc-trimer captured on protein A/G chip. On the procedure:
Briefly, human target CD70 (SEQ ID NO: 89; hCD70-Fc-trimer, ACRO Biosystems) was diluted in PBST (PBS, pH 7.4 containing 0.005% Tween 20®) and captured on a PAGD200L protein A/G sensorchip (XanTec bioanalytics GmbH) to a level of around 36 resonance units (RU) using a ProteOn (BioRad). The interaction of each tested ankyrin repeat protein and human CD70-Fc-trimer was then measured by injecting 400 μl running buffer (PBS, pH 7.4 containing 0.005% Tween 20®) containing three-fold serial dilutions of ankyrin repeat proteins covering a concentration range between 600 nM and 7.4 nM, followed by a running buffer flow for 2700 seconds at a constant flow rate of 100 μl/min (off-rate measurement). The regeneration was performed using 30 μl of 10 mM glycine pH 2 and hCD70-Fc-trimer was reinjected to prepare the surface for the next measurement. Each interaction was recorded in triplicates. The signals (i.e. resonance unit (RU) values) of the interspots and a reference injection (i.e. injection of running buffer only) were subtracted from the RU traces obtained injecting the ankyrin repeat protein (double-referencing). Dissociation constants (KD) were calculated from the globally fitted on- and off-rates using standard 1:1-Langmuir model.

Another test has as its target T4, human serum albumin (human, UniProt P02768 25-609).
T4 construct: also called HSA; SA
The test is described as follows: SPR, set-up not described.

The target in test [4] is T5, human scCD3εγ (scCD3εγ_Avi-Bio) (human, biotin on the C-terminal Avi-tag (in vitro, BirA) where the biotinylated form was used).
T5 construct: Used for all SPR and HTRF results on human CD3; also called recombinant human CD3; human CD3
T5 chain: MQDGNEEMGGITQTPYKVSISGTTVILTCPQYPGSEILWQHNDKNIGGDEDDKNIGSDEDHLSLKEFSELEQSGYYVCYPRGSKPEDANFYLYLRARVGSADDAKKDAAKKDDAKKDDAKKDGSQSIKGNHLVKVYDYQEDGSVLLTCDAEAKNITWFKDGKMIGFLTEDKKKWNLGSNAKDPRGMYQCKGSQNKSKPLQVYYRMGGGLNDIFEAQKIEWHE
Kind of test: SPR, set-up not described.

For test [5], the target named is T6, Molm-13 N1 tumor cells (carrying CD123, CD33 and CD70) (human, UniProt P20138 18-364; P26951 19-378; P32970 1-193).
T6 construct: whole, on cells; Not a complex: three separate antigens on one cell; also called Molm-13 N1 cells
T6 sequence (P20138 18-364, one chain of several): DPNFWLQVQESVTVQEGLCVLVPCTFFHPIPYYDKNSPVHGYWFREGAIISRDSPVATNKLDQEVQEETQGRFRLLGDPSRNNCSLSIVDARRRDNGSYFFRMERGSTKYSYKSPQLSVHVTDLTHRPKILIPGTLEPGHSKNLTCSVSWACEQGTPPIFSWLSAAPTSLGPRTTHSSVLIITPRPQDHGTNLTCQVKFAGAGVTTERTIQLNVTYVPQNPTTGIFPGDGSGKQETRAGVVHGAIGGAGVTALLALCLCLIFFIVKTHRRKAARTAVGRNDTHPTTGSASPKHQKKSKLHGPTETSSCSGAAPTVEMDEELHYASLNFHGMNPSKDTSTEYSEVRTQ
The test is described as follows: flow cytometry on Molm-13 N1 cells, 20 uM HSA. On the procedure:
The determination of binding of several multispecific proteins to tumor cells was performed by Fluorescence Activated Cell Sorting (FACS) flow cytometry. Therefore, tumor cells (Molm-13 N1), were seeded at 100′000 cells per well in a 96 well plate. DARPin® protein #56, DARPin® protein #57, DARPin® protein #58, DARPin® protein #59, DARPin® protein #60, DARPin® protein #61 and DARPin® protein #62 were titrated down starting at 100 nM in 1:5 dilution ratio. Tumor cells were resuspended with diluted DARPin® proteins and incubated 60 minutes at 4° C. The assay was performed in PBS including 2% fetal bovine serum and human serum albumin 20 uM (HSA). After washing twice with Phosphate Buffer saline (PBS), DARPin® protein specific tumor cell binding was detected by adding unlabelled primary […] (anti-rabbit 1-1-1 antibody, CePower) at 2 ug/ml. An incubation step of at least 30 minutes at 4° C. followed. Afterwards, cells were washed with PBS and a secondary anti-rabbit antibody labelled with Alexa Fluor 647 antibody (ThermoFisher) at 2 ug/ml was added. The same incubation conditions applied. Finally, the cells were washed twice and resuspended in Cytofix fixation buffer (BD Biosciences) for 15 min at room temperature (RT). Median fluorescence intensities (MFI) of Alexa Fluor 647 DARPin® labelled cells were measured by Attune NxT (Thermo Fisher) using FlowJo software for analyses and GraphPad Prism 8 for data plotting.

T4 sequence (P02768 25-609 limits assumed): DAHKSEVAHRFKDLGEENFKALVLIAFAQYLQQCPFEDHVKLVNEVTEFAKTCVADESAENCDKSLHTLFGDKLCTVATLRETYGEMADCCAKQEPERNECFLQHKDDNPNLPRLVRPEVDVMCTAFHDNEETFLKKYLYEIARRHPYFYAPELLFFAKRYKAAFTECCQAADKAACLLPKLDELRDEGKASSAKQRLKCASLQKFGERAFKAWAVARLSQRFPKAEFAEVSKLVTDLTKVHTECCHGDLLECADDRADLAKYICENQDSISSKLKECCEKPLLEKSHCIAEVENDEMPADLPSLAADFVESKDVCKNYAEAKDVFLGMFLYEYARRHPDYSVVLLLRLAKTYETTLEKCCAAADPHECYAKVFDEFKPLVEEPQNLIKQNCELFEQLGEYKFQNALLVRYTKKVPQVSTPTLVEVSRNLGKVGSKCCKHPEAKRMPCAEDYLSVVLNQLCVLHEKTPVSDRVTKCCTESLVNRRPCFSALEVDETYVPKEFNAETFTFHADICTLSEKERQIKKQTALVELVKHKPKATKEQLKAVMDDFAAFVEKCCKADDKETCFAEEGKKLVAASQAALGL
T1 sequence (P20138 18-259 R69G): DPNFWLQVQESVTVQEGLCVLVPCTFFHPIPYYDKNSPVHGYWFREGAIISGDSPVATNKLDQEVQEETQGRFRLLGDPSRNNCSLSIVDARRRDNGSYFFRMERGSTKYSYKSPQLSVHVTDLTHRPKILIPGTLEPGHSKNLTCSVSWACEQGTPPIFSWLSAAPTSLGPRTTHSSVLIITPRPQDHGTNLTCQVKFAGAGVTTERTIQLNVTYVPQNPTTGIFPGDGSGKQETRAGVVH

B1: DARPin® protein #56 (designed binder)
chain: DLGKKLLEAARAGQDDEVRELLKAGADVNAKDYFSHTPLHLAARNGHLKIVEVLLKAGADVNAKDFAGKTPLHLAAADGHLEIVEVLLKAGADVNAQDIFGKTPADIAADAGHEDIAEVLQKAAGSPTPTPTTPTPTPTTPTPTPTGSDLGKKLLEAARAGQDDEVRELLKAGADVNAKDYFSHTPLHLAARNGHLKIVEVLLKAGADVNAKDFAGKTPLHLAAADGHLEIVEVLLKAGADVNAQDIFGKTPADIAADAGHEDIAEVLQKAAGSPTPTPTTPTPTPTTPTPTPTGSDLGVKLLLAAERGQLDEVRILLKAGADVNAKDIAEGYTPLHIAAYQGHLEIVEVLLKAGADVNAKDRYGKTPLHLAAIGGHLEIVEVLLKAGADVNAQDNKGSTPADLAADYGHQDIAEVLQKAAGSPTPTPTTPTPTPTTPTPTPTGSDLGKKLLEAALEGQLDEVRELLKAGADVNAKDQEGYTPLHLAAALGHLEIVEVLLKAGADVNAKDQIGRTPLHLAAYKGHLEIVEVLLKAGADVNAQDIIGQTPADLAAQRGHQDIAEVLQKAAGSPTPTPTTPTPTPTTPTPTPTGSDLGIKLLTAAYDGQLDEVRILLKAGADVNAKDLRGQTPLHYAAGLGHLEIVEVLLKAGADVNAKDLHGWTPLHLAAWSGHLEIVEVLLKAGADVNAQDVEGVTPADLAAVQGHQDIAEVLQKAAGSPTPTPTTPTPTPTTPTPTPTGSDLGQKLLEAAWAGQDDEVRELLKAGADVNAKNSRGWTPLHTAAQTGHLEIFEVLLKAGADVNAKNDKRVTPLHLAAALGHLEIVEVLLKAGADVNARDSWGTTPADLAAKYGHQDIAEVLQKAA
notes: HSA-HSA-CD33-CD123-CD70-CD3; not shown: N-terminal His-tag
As for B1, the Kd in test [1] is 5.1 nM; in test [2], 0.056 nM; in test [3] it was 0.61 nM; in the test with human serum albumin it was 120 nM; in test [4], 24 nM. Besides, it took 0.26 nM to reach a half-maximal effect in test [5] (EC50).

B2: DARPin® protein #57 (designed binder)
chain: DLGKKLLEAARAGQDDEVRELLKAGADVNAKDYFSHTPLHLAARNGHLKIVEVLLKAGADVNAKDFAGKTPLHLAAADGHLEIVEVLLKAGADVNAQDIFGKTPADIAADAGHEDIAEVLQKAAGSPTPTPTTPTPTPTTPTPTPTGSDLGKKLLEAARAGQDDEVRELLKAGADVNAKDYFSHTPLHLAARNGHLKIVEVLLKAGADVNAKDFAGKTPLHLAAADGHLEIVEVLLKAGADVNAQDIFGKTPADIAADAGHEDIAEVLQKAAGSPTPTPTTPTPTPTTPTPTPTGSDLGIKLLTAAYDGQLDEVRILLKAGADVNAKDLRGQTPLHYAAGLGHLEIVEVLLKAGADVNAKDLHGWTPLHLAAWSGHLEIVEVLLKAGADVNAQDVEGVTPADLAAVQGHQDIAEVLQKAAGSPTPTPTTPTPTPTTPTPTPTGSDLGKKLLQAALEGQLDEVRELLKAGADVNAKDIEGYTPLHLAAALGHLEIVEVLLKAGADVNAKDQIGRTPLHLAAYKGHLEIVEVLLKAGADVNAQDIIGQTPADLAAQRGHQDIAEVLQKAAGSPTPTPTTPTPTPTTPTPTPTGSDLGKKLLLAAERGQLDEVRILLKAGADVNAKDRAEGYTPLHIAAYQGHLEIVEVLLKAGADVNAKDRYGKTPLHLAAISGHLEIVEVLLKAGADVNAQDNKGSTPADLAADYGHQDIAEVLQKAAGSPTGSDLGQKLLEAAWAGQDDEVRELLKAGADVNAKNSRGWTPLHTAAQTGHLEIFEVLLKAGADVNAKNDKRVTPLHLAAALGHLEIVEVLLKAGADVNARDSWGTTPADLAAKYGHQDIAEVLQKAA
notes: HSA-HSA-CD70-CD123-CD33-CD3; not shown: N-terminal His-tag
B2: the Kd in test [1] was 12 nM; in test [2], 0.094 nM; in test [3] it was 0.82 nM; with human serum albumin it was 110 nM; in test [4], 29 nM. The molecule also displayed an EC50 in test [5] of 0.13 nM.
